Square brackets hold non-standard residues; d marks the D form. Peptide text beside a SMILES is read from it. * marks the point of attachment. Sta = CC(C)C[C@H](N)[C@@H](O)CC(=O)O; Isovaleryl = CC(C)CC(=O)*

One series relates to Nepenthes enzymes. Kind of series: enzyme inhibition testing, BSA digestion by Nepenthes enzymes, SDS-PAGE. Format: biochemical. The note with it: BSA 1 mg/ml, 0.12 μM Nepenthes enzymes, 15 min at 37° C.; inhibitors at 1 mM. On the procedure: Inhibitors: PMSF (phenylmethylsulfonyl fluoride), P (pepstatin), L (leupeptin), E (EDTA and EGTA), DTT (dithiothreitol), ZPP (Z-Pro-Pro-aldehyde-dimethyl acetal). All inhibitor concentrations at 1 mM except where noted. Extract: fluid protein extract, M: lane markers. For enzyme inhibition testing, bovine serum albumin (1 mg/ml) was digested with 0.12 μM Nepenthes enzymes for 15 min at 37° C., quenched by brief boiling and then analyzed by 10% SDS-PAGE. The enzymes were pretreated with controls and inhibitors at 4° C. for 2 days prior to digestion experiments. PMSF, pepstatin, leupeptin, EDTA, EGTA, DTT from Sigma-Aldrich, and ZPP (Z-Pro-Pro-aldehyde-dimethyl acetal) from Bachem.

A further series has as its system crude gliadin. The series is described as follows: SDS-PAGE and proteomic LC-MS/MS analysis of crude gliadin digests. Format: biochemical, Triticum aestivum. The following applies: crude gliadin slurry digested with purified neprosin alone. On the procedure:
Digestions at pH 2.5 and 37° C., for 90 min. All concentrations in μM. M: Molecular weight markers, and gliadin: total crude gliadin in the absence of protease. […] Peptide data from LC-MS/MS runs, with intensities obtained using Protein Deconvolution 1.0. […] A stock gliadin slurry of 20-50 mg/ml was prepared in acidic solution (100 mM glycine HCl, pH 2.5) and briefly sonicated to further break up large particulates and promote suspension. Digestions of 10 mg/mL gliadin slurries were initiated by addition of enzyme (pepsin, fluid enzymes or both) and held at 37° C. with gentle rotation. Digest progress was monitored by gravimetric analysis, optical transmission, SDS-PAGE and mass spectrometry. For gravimetric analysis, digests were quenched by boiling and treated with TCA/chloroform, followed by centrifugation to recover undigested or poorly digested protein. For monitoring with optical transmission, digestion reactions were conducted in 96-well plate with ≥3 replicates of each reaction condition, and turbidity monitored at 595 nm at 37° C. every 2 minutes, for 90 minutes (SpectraMax plate reader, Molecular Devices). The plate was shaken at medium speed briefly between measurements. The digests were quenched after 90 min reaction by boiling for 10 minutes (confirmed to have no impact on digestion profile, a posteriori). An aliquot of the reaction mixture was analyzed on an 8% SDS-PAGE gel. The remaining amount was centrifuged and the supernatant was analyzed by mass spectrometry. Supernatant was analyzed by data-dependent LC-MS/MS, in two 1-hour reversed phase gradient runs, configured for top-10 ion selection using CID in a high/low configuration. In one run, ion selection was restricted to 2+ and higher charge states. In the other run, ion selection was applied to 1+ charge states only. Data from both runs were combined and searched against all UniprotKB/Swiss-Prot entries for gliadin and glutenin from Triticum aestivum (25 proteins), using Mascot v2.3, configured for non-specific digestions and filtered for peptide hits with p<0.05. For estimation of peptide size distribution, all LC-MS spectra were combined and deconvoluted in Protein Deconvolution v1.0, with appropriate settings. For label-free quantitative analysis using the subset of the digest identified in the database search, the hit list was combined with the raw data in Mass Spec Studio and used to generate a set of peptide ion chromatograms, integrated over all isotopes to determine a weight-average intensity for each peptide sequence identified.

The next series has as its system protein standards. Kind of series: cleavage preferences on protein standards, LC-MS/MS. The format is biochemical. Here is the method: C-terminal cleavage preferences (P1 position) as a function of storage time at elevated temperature. Fluid concentrate was incubated at 37° C. for 0-7 days. […] Data were collected from 2-minute in-solution digestions of protein standards at 37° C. (pH 2.5), and cleavage preferences were determined using LC-MS/MS methods. For each amino acid, cleavage preferences were estimated by calculating the number observed terminal residues relative to the total number of residues, in percent.
Data were generated and collected as described for FIG. 1A.
Data are shown as relative % cleavage to the total, as defined above, using LC-MS/MS data from a set of protein standards. Samples were digested in solution for 5 minutes at 37° C. in this comparison, for all three enzyme preparations.
Data are provided as described for FIG. 1C.
Data was generated using HCD fragmentation on an LC-Orbitrap Velos instrument, and data searched against the sequence of APLF in Mass Spec Studio assuming no enzyme specificity, and results were cut off at a peptide false discovery rate (FDR) of 0.5%. Figure discloses SEQ ID NO: 87.

The test system of another series is NOD DQ8 mice. The series is described as follows: transgenic NOD/HLA-DQ8 mouse model of gliadin sensitivity.

In the case of `CC(C)CC(=O)N[C@H](C(=O)N[C@H](C(=O)N[C@@H](CC(C)C)[C@@H](O)CC(=O)N[C@@H](C)C(=O)N[C@@H](CC(C)C)[C@@H](O)CC(=O)O)C(C)C)C(C)C` [Pepstatin, pepstatin] (Isovaleryl-VV[Sta]A[Sta]-OH), the “suppression of enzyme activity by proteolytic inhibitors” value in the series on Nepenthes enzymes is “could only partially suppress enzyme activity”.

B1: neprosin: 29 kDa prolyl endoprotease isolated from Nepenthes pitcher fluid (fraction 2), SEQ ID NO.: 1 (protein)
chain: MQAKFFTFVILSSVFYFNYPLAEARSIQARLANKPKGTIKTIKGDDGEVVDCVDIYKQPAFDHPLLKNHTLQMQPSSYASKVGEYNKLEQPWHKNGECPKGSIPIRRQVITGLPVVKKQFPNLKFAPPSANTNHQYAVIAYFYGNASLQGANATINIWEPNLKNPNGDFSLTQIWISAGSGSSLNTIEAGWQVYPGRTGDSQPRFFIYWTADGYTSTGCYDLTCPGFVQTNNYYAIGMALQPSVYGGQQYELNESIQRDPATGNWWLYLWGTVVGYWPASIYNSITNGADTVEWGGEIYDSSGTGGFHTTTQMGSGHFPTEGYGKASYVRDLQCVDTYGNVISPTANSFQGIAPAPNCYNYQFQQGSSELYLFYGGPGCQ
In the case of B1, in the series on crude gliadin, the “weighted average peptide length for the low molecular weight fraction” value was 12.5. In the series on protein standards, the “C-terminal (P1) cleavage specificity” value is “dominant Pro-X cleavage specificity”.

B2: recombinant nepenthesin II: recombinant aspartic protease of Nepenthes, SEQ ID NO.: 20 (protein)
chain: QSSSGIETPVYAGDGEYLMNVAIGTPDSSFSAIMDTGSDLIWTQCEPCTQCFSQPTPIFNPQDSSSFSTLPCESQYCQDLPSETCNNNECQYTYGYGDGSTTQGYMATETFTFETSSVPNIAFGCGEDNQGFGQGNGAGLIGMGWGPLSLPSQLGVGQFSYCMTSYGSSSPSTLALGSAASGVPEGSPSTTLIHSSLNPTYYYITLQGITVGGDNLGIPSSTFQLQDDGTGGMIIDSGTTLTYLPQDAYNAVAQAFTDQINLPTVDESSSGLSTCFQQPSDGSTVQVPEISMQFDGGVLNLGEQNILISPAEGVICLAMGSSSQLGISIFGNIQQQETQVLYDLQNLAVSFVPTQCGAS
Take B2: the “C-terminal (P1) cleavage specificity” value in the series with protein standards was “absence of C-terminal proline (P) cleavage”. Moreover, in the series on NOD DQ8 mice (gliadin codigested with pepsin 100:1 and fluid enzyme 264:1 or nepenthesin II 100:1, pepsin alone is positive control), the “small intestinal CD3+ intraepithelial lymphocyte (IEL) counts” value is given as “significant reductions in IEL counts, to levels indistinguishable from the gliadin-free diet control”. Besides, in the series on NOD DQ8 mice (sensitized mice challenged three times per week for three weeks with 5 mg treated gliadin), the tolerability entry is “well tolerated”.

B3: recombinant nepenthesin I: recombinant aspartic protease of Nepenthes, SEQ ID NO.: 21 (protein)
chain: NGPSGVETSVYAGDGEYLMNLSIGTPAQPFSAIMDTGSDLIWTQCQPCTQCFNQSTPIFNPQGSSSFSTLPCSSQLCQALSSPTCSNNFCQYTYGYGDGSETQGSMGTETLTFGSVSIPNITFGCGENNQGFGQGNGAGLVGMGRGPLSLPSQLDVTKFSYCMTPIGSSTPSNLLLGSLANSVTAGSPNTTLIQSSQIPTFYYITLNGLSVGSTRLPIDPSAFALNSNNGTGGIIIDSGTTLTYFVNNAYQSVRQEFISQINLPVVNGSSSGFDLCFQTPSDPSNLQIPTFVMHFDGGDLELPSENYFISPSNGLICLAMGSSSQGMSIFGNIQQQNMLVVYDTGNSVVSFASAQCGAS
Turning to B3, in the series with protein standards, the “C-terminal (P1) cleavage specificity” value is reported as “absence of C-terminal proline (P) cleavage”.

The values are drawn from patent publication US10857214B2, “Compositions and methods for treating gluten intolerance and disorders arising therefrom” (Codexis, Inc., priority 2015, dated 2020).
